Experiments:
Bovine serum albumin = Bovine serum albumin (Bos taurus, UniProt P02769); assay: Binding of FAM-peptide to control protein immobilized on a plate; conditions: 1 μM, room temperature, 1 h, fluorescence
Protocol: (§1) To confirm RXRB binds CRV, the binding of FAM-CRV to human recombinant RXRB protein immobilized on a plate was tested. Human RXRB recombinant protein (50 μL, 5 μg/mL) was immobilized in high binding 96-well plate at 4° C. overnight. Bovine serum albumin was used as the control protein. The protein solution was removed and washed one time with PBS. 1% BSA in PBS solution was then added to the wells and incubated at room temperature for 1 h to block the rest available binding sites. After one wash with PBS, RXRB and BSA were incubated with FAM-CRV (100 μL, 1 μM) at room temperature for 1 h. The wells were washed three times with PBS and the fluorescence was measured using a multiplate reader.

[1] = target: T1, human recombinant RXRB protein (Homo sapiens, UniProt P28702); assay: Binding of FAM-peptide to protein immobilized on a plate; conditions: 1 μM, room temperature, 1 h, fluorescence
T1 sequence (P28702 1-533): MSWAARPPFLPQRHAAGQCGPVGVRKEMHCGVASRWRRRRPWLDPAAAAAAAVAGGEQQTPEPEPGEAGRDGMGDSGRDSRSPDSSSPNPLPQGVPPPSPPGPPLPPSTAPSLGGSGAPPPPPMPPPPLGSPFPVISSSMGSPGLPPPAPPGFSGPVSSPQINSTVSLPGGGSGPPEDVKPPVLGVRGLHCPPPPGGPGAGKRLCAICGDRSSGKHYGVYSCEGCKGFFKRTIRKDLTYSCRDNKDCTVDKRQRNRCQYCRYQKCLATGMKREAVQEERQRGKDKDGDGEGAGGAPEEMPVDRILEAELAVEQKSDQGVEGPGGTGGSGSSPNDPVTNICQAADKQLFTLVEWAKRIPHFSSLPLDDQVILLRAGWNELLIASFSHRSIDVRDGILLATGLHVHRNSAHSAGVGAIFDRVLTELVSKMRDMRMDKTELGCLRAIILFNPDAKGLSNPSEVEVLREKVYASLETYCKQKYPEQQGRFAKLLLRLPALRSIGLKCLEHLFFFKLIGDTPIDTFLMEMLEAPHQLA
Protocol: as §1

[2] = tested on: cells isolated from tumors, spleen, liver, and blood from the 4T1 tumor mice; assay: Ex vivo binding to cells isolated from organs of 4T1 mice, flow cytometry; type: cell-based, mouse; conditions: 4T1 model, 4° C., 1 h
Protocol: Mice with tumor size about 8 mm were euthanized under deep anesthesia (Avertin, lack of response to a toe pinch) by cervical dislocation. Target (tumor) and control (e.g., liver, spleen) tissues were collected and further dissociated to single cells. Tumor cells were dissociated using MACS tumor dissociation kit. Cells were then incubated with fluorescent-labeled CRV or other cell markers (CD11b, CD68, F4/80, FAB, EpCAM, CD31) at 4° C. for 1 h. Positive cells were quantified on BD LSRFORTESSA and data were analyzed using FCS Express Version 3 (De Novo Software).

4T1 tumors = assay: Immunofluorescence staining of tissues for FAM-peptide and CD31 at different homing time points; type: in vivo, mouse; conditions: 4T1 orthotopic tumor-bearing mice, i.v.
Protocol: FAM-CRV was intravenously injected into tumor bearing mice. To this end, 4T1 […] breast cancer cells were cultured in Dulbecco's modified Eagle's medium supplemented with 10% fetal bovine serum, 100 U/mL penicillin and 100 μg/mL streptomycin. The […] cell line was authenticated by the DNA Analysis Core Facility at the Sanford Burnham Prebys Medical Discovery Institute (La Jolla, Calif.) and tested negative for mycoplasma contamination. To produce 4T1 tumors, 1×10^6 tumor cells (suspended in 100 μL of PBS) were orthotopically injected into the mammary fat pad of normal BALB/c mice. All animal experimentation received approval from the Animal Research Committee of Sanford Burnham Prebys Medical Discovery Institute. Biodistribution of fluorescein-conjugated peptides (FAM-CRV, FAM-GGS, or FAM-ARA) was examined after intravenous injection of 100 μL peptide solution (1 mg/mL PBS) into the tail vein of a mouse. […] Tissues were collected, fixed with 4% formaldehyde buffer solution and then soaked in 30% sucrose in PBS overnight. Tissues were finally frozen in OCT embedding medium (Tissue-Tek), and sliced for immunofluorescence staining. Tissue sections were blocked in 1% bovine serum albumin with 0.1% Triton X-100 for 1 h, and incubated with appropriate primary antibodies and second antibodies. […]

Bovine serum albumin, sequence (P02769 25-607): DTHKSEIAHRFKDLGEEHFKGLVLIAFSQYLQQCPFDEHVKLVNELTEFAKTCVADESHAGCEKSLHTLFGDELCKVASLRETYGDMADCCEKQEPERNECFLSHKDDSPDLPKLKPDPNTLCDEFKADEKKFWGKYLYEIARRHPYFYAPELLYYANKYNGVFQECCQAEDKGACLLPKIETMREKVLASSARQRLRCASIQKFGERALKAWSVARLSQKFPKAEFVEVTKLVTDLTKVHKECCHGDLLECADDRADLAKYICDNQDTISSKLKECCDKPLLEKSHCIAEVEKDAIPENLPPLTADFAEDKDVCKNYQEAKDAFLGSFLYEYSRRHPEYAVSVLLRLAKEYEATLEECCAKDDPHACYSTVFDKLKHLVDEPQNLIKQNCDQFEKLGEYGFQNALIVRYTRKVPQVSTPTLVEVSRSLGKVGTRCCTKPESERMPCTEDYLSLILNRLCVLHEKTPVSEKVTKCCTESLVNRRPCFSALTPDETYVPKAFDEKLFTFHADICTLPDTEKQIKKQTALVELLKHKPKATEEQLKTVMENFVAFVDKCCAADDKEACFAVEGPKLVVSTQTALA

Row | Sequence | binding to control protein BSA (Bovine serum albumin) | binding to immobilized RXRB compared to control peptide FAM-GGS [1] | specific labelling of macrophages in the tumor (ex vivo) [2] | fluorescence signal in the tumors at homing time points 5, 15, and 60 min (4T1 tumors)
1 | CRVLRSGSC [cyclic macrophage-targeting peptide] | neither peptide bound | significantly higher binding | – | –
2 | GGSGGSKG [FAM-GGS, FAM-labeled control peptide] | neither peptide bound | – | could not specifically label macrophages | no fluorescence signals
